Data reported in patent US20090048164A1.
No end group written: not given here. FLAG = FLAG tag

target: Recombinant human Bcl-xL with a 25 amino acid truncation of its C-terminus (human) (UniProt Q07817); assay: competition phage ELISA
Sequence (Q07817 1-208): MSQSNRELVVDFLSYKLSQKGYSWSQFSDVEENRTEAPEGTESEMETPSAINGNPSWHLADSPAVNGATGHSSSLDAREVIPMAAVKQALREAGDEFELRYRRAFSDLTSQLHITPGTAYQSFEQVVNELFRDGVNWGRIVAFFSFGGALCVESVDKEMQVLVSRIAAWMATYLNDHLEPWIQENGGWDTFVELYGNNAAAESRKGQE

Binder	Fold/wt	IC50
ALWAAQRYGRELRRMSDEFVDSFKKG [Bad BH3 N1A, phage-displayed]	1 fold	2 nM
NAWAAQRYGRELRRMSDEFVDSFKKG [Bad BH3 L2A, phage-displayed]	2 fold	4 nM
NLAAAQRYGRELRRMSDEFVDSFKKG [Bad BH3 W3A, phage-displayed]	1 fold	3 nM
NLWEAQRYGRELRRMSDEFVDSFKKG [Bad BH3 A4E, phage-displayed]	2 fold	4 nM
NLWAEQRYGRELRRMSDEFVDSFKKG [Bad BH3 A5E, phage-displayed]	5 fold	12 nM
NLWAAARYGRELRRMSDEFVDSFKKG [Bad BH3 Q6A, phage-displayed]	2 fold	3 nM
NLWAAQAYGRELRRMSDEFVDSFKKG [Bad BH3 R7A, phage-displayed]	2 fold	4 nM
NLWAAQRAGRELRRMSDEFVDSFKKG [Bad BH3 Y8A, phage-displayed]	3 fold	7 nM
NLWAAQRYGAELRRMSDEFVDSFKKG [Bad BH3 R10A, phage-displayed]	1 fold	3 nM
NLWAAQRYGRELARMSDEFVDSFKKG [Bad BH3 R13A, phage-displayed]	1 fold	3 nM
NLWAAQRYGRELRAMSDEFVDSFKKG [Bad BH3 R14A, phage-displayed]	2 fold	4 nM
NLWAAQRYGRELRRASDEFVDSFKKG [Bad BH3 M15A, phage-displayed]	3 fold	6 nM
NLWAAQRYGRELRRMSAEFVDSFKKG [Bad BH3 D17A, phage-displayed]	7 fold	16 nM
NLWAAQRYGRELRRMSDAFVDSFKKG [Bad BH3 E18A, phage-displayed]	2 fold	4 nM
NLWAAQRYGRELRRMSDEAVDSFKKG [Bad BH3 F19A, phage-displayed]	12 fold	27 nM
NLWAAQRYGRELRRMSDEFADSFKKG [Bad BH3 V20A, phage-displayed]	1 fold	3 nM
NLWAAQRYGRELRRMSDEFVASFKKG [Bad BH3 D21A, phage-displayed]	1 fold	2 nM
NLWAAQRYGRELRRMSDEFVDAFKKG [Bad BH3 S22A, phage-displayed]	2 fold	4 nM
NLWAAQRYGRELRRMSDEFVDSAKKG [Bad BH3 F23A, phage-displayed]	2 fold	4 nM
NLWAAQRYGRELRRMSDEFVDSFAKG [Bad BH3 K24A, phage-displayed]	2 fold	4 nM
NLWAAQRYGRELRRMSDEFVDSFKAG [Bad BH3 K25A, phage-displayed]	2 fold	4 nM
NLWAAQRYGRELRRMSDEFVDSFKKE [Bad BH3 G26E, phage-displayed]	1 fold	3 nM

target: mouse Mcl-1 with truncations of 151 amino acid residues at its N-terminus and 23 residues at its C-terminus (mouse) (UniProt P97287); assay: competition phage ELISA
Sequence (P97287 152-308): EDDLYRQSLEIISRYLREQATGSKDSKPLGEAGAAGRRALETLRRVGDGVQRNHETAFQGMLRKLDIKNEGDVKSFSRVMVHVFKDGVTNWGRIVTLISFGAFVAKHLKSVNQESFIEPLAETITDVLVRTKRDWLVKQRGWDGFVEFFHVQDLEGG

Binder	Fold/wt	IC50
QEDIIRNIARHLAQAGDSMDRSIPPG [Bid BH3 V15A, phage-displayed]	2 fold	245 nM
{FLAG}-AAELPPEFAAQLRKIGDKVYCTWSAP-{GGGT-g3(249-406)} [mNoxaA BH3 R1A, phage-displayed]	1 fold	20 nM
{FLAG}-REELPPEFAAQLRKIGDKVYCTWSAP-{GGGT-g3(249-406)} [mNoxaA BH3 A2E, phage-displayed]	1 fold	22 nM
{FLAG}-RAALPPEFAAQLRKIGDKVYCTWSAP-{GGGT-g3(249-406)} [mNoxaA BH3 E3A, phage-displayed]	1 fold	30 nM
{FLAG}-RAEAPPEFAAQLRKIGDKVYCTWSAP-{GGGT-g3(249-406)} [mNoxaA BH3 L4A, phage-displayed]	1 fold	24 nM
{FLAG}-RAELAPEFAAQLRKIGDKVYCTWSAP-{GGGT-g3(249-406)} [mNoxaA BH3 P5A, phage-displayed]	1 fold	20 nM
{FLAG}-RAELPAEFAAQLRKIGDKVYCTWSAP-{GGGT-g3(249-406)} [mNoxaA BH3 P6A, phage-displayed]	< 1 fold	8 nM
{FLAG}-RAELPPAFAAQLRKIGDKVYCTWSAP-{GGGT-g3(249-406)} [mNoxaA BH3 E7A, phage-displayed]	1 fold	43 nM
{FLAG}-RAELPPEAAAQLRKIGDKVYCTWSAP-{GGGT-g3(249-406)} [mNoxaA BH3 F8A, phage-displayed]	1 fold	24 nM
{FLAG}-RAELPPEFEAQLRKIGDKVYCTWSAP-{GGGT-g3(249-406)} [mNoxaA BH3 A9E, phage-displayed]	2 fold	76 nM
{FLAG}-RAELPPEFAEQLRKIGDKVYCTWSAP-{GGGT-g3(249-406)} [mNoxaA BH3 A10E, phage-displayed]	1 fold	43 nM
{FLAG}-RAELPPEFAAALRKIGDKVYCTWSAP-{GGGT-g3(249-406)} [mNoxaA BH3 Q11A, phage-displayed]	1 fold	22 nM
{FLAG}-RAELPPEFAAQARKIGDKVYCTWSAP-{GGGT-g3(249-406)} [mNoxaA BH3 L12A, phage-displayed]	2 fold	67 nM
{FLAG}-RAELPPEFAAQLAKIGDKVYCTWSAP-{GGGT-g3(249-406)} [mNoxaA BH3 R13A, phage-displayed]	1 fold	57 nM
{FLAG}-RAELPPEFAAQLRAIGDKVYCTWSAP-{GGGT-g3(249-406)} [mNoxaA BH3 K14A, phage-displayed]	1 fold	37 nM
{FLAG}-RAELPPEFAAQLRKIGDAVYCTWSAP-{GGGT-g3(249-406)} [mNoxaA BH3 K18A, phage-displayed]	< 1 fold	11 nM
RAELPPEFAAQLRKIGDKVACTWSAP-{GGGT-g3(249-406)} (not fully specified (N-terminus)) [mNoxaA BH3 Y20A, phage-displayed]	1 fold	32 nM
{FLAG}-RAELPPEFAAQLRKIGDKVYATWSAP-{GGGT-g3(249-406)} [mNoxaA BH3 C21A, phage-displayed]	1 fold	19 nM
{FLAG}-RAELPPEFAAQLRKIGDKVYCAWSAP-{GGGT-g3(249-406)} [mNoxaA BH3 T22A, phage-displayed]	< 1 fold	14 nM
RAELPPEFAAQLRKIGDKVYCTASAP-{GGGT-g3(249-406)} (not fully specified (N-terminus)) [mNoxaA BH3 W23A, phage-displayed]	2 fold	69 nM
{FLAG}-RAELPPEFAAQLRKIGDKVYCTWAAP-{GGGT-g3(249-406)} [mNoxaA BH3 S24A, phage-displayed]	< 1 fold	13 nM
{FLAG}-RAELPPEFAAQLRKIGDKVYCTWSEP-{GGGT-g3(249-406)} [mNoxaA BH3 A25E, phage-displayed]	1 fold	33 nM
RAELPPEFAAQLRKIGDKVYCTWSAP-{GGGT-g3(249-406)} (not fully specified (N-terminus)) [mNoxaA BH3 wild type, phage-displayed]	1 fold	39 nM
PSSTMGQAGRQLAIIGDDINRRYDSE [Bak BH3 V8A, phage-displayed]	4 fold	79 nM
PSSTMGQVERQLAIIGDDINRRYDSE [Bak BH3 G9E, phage-displayed]	21 fold	438 nM
PSSTMGQVGRQAAIIGDDINRRYDSE [Bak BH3 L12A, phage-displayed]	20 fold	414 nM
PSSTMGQVGRQLEIIGDDINRRYDSE [Bak BH3 A13E, phage-displayed]	17 fold	356 nM
PSSTMGQVGRQLAIAGDDINRRYDSE [Bak BH3 I15A, phage-displayed]	25 fold	517 nM
PSSTMGQVGRQLAIIGDDANRRYDSE [Bak BH3 I19A, phage-displayed]	9 fold	185 nM
